According to paper PMC10516938, “Conformational dynamics of cohesin/Scc2 loading complex are regulated by Smc3 acetylation and ATP binding” (Nature Communications, 2023):

Target: T1, Smc3^E1155Q Q67C K1004C (S. cerevisiae, UniProt P47037 1-1230, Q67C | K1004C | E1155Q)
T1 construct: Smc3, S. cerevisiae, ATP hydrolysis mutant; source: S. cerevisiae W303, late G1 arrested cells, whole-cell extract
T1 sequence (looked up): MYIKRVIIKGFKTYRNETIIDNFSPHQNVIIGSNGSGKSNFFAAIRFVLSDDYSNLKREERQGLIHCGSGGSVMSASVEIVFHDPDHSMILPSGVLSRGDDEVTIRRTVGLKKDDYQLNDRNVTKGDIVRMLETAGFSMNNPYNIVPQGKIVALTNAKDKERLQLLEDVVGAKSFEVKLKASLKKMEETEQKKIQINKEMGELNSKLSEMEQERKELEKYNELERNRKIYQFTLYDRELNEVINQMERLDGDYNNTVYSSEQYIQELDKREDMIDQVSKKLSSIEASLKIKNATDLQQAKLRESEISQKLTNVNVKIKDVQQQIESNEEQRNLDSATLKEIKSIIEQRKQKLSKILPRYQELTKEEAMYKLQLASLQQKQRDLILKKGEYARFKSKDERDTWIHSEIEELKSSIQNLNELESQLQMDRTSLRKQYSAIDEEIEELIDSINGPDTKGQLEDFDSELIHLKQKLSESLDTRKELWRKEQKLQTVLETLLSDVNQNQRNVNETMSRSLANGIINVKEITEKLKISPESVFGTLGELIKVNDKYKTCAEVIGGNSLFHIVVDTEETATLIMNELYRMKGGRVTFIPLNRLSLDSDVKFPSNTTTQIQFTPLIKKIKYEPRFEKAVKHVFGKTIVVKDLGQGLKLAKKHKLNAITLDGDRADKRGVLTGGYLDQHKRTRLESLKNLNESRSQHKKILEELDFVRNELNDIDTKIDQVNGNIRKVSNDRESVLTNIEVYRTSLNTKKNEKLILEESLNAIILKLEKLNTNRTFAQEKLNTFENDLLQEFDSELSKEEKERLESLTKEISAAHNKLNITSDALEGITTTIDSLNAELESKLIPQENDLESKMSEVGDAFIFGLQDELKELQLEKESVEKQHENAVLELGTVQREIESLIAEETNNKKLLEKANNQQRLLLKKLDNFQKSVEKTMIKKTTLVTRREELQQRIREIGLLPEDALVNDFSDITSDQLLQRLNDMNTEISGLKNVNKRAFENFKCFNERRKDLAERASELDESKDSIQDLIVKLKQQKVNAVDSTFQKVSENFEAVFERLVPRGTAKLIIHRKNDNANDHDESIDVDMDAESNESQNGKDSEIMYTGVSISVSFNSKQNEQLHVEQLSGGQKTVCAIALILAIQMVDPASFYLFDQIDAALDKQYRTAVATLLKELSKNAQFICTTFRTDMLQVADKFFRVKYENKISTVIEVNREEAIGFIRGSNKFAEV
Assay: cross-linking; in vivo BMOE cross-link of cysteine pairs in yeast cells arrested in late G1 by non-degradable Sic1(9m); Scc1-PK immunoprecipitated, western blot, band intensities quantified
Settings: partners not purified

double crosslink band relative to that of smc3 S72C K1004C E1155Q with scc2 E819C D369C: ~15%
B1: Scc2 D369C T1175C (natural protein, S. cerevisiae, UniProt Q04002 1-1493, looked up)
chain: MSYPGKDKNIPGRIIEALEDLPLSYLVPKDGLAALVNAPMRVSLPFDKTIFTSADDGRDVNINVLGTANSTTSSIKNEAEKERLVFKRPSNFTSSANSVDYVPTNFLEGLSPLAQSVLSTHKGLNDSINIEKKSEIVSRPEAKHKLESVTSNAGNLSFNDNSSNKKTKTSTGVTMTQANLAEQYLNDLKNILDIVGFDQNSAEIGNIEYWLQLPNKKFVLTTNCLTKLQMTIKNITDNPQLSNSIEITWLLRLLDVMVCNIKFSKSSLKMGLDDSMLRYIALLSTIVLFNIFLLGKNDSNLHRESYIMEPVNFLSDLIESLKILTIEYGSLKIEFDTFQEALELLPKYIRNGPFLDDNVTAKLVYIFSCLLMNNDIEATTNIQFQSFWDNVKRISSDILVSLFGSFDQQRGFIIEELLSHIEKLPTKRIQKKLRKVGNQNIYITDFTFTLMSMLENINCYSFCNQMKDIAPENIDLLKNEYKKQEEFLFNIVEHINDTILERFFKNPSALRYVIDNFVQDLLLLISSPQWPVTEKILSSLLKRLLSVYSPSMQVSANIETICLQLIGNIGSTIFDIKCSTRDHEDNNLIKMINYPETLPHFFKSFEECIAYNETIKCRRSATRFLWNLRLGTILILEEYTKDAKEQIITVDNELKKILEQIKDGGLGPELENREADFSTIKLDYFSILHAFELLNLYDPYLKLILSLLAKDKIKLRSTAIKCLSMLASKDKVILSNPMVKETIHRRLNDSSASVKDAILDLVSINSSYFEFYQQINNNYNDDSIMVRKHVLRINEKMYDETNDIVTKVYVIARILMKIEDEEDNIIDMARLILLNRWILKVHEVLDQPEKLKEISSSVLLVMSRVAIMNEKCSQLFDLFLNFYLLNKEAHSKEAYDKITHVLTILTDFLVQKIVELNSDDTNEKNSIVDKQNFLNLLAKFADSTVSFLTKDHITALYPYMVSDEKSDFHYYILQVFRCTFEKLANFKQKFLYDLETTLLSRLPKMNVREIDEAMPLIWSVATHRHDTARVAKACSSCLSHLHPYINKANNEEAAIVVDGKLQRLIYLSTGFARFCFPKPSNDKIAFLQEGETLYEHITKCLLVLSKDKITHVIRRVAVKNLTKLCGNHPKLFNSRHVLHLLDKEFQSDQLDIKLVILESLYDLFLLEERKSVRNCGVNSTLSSNSILKKKLLKTNRVEFANDGVCSALATRFLDNILQLCLLRDLKNSLVAIRLLKLILKFGYTNPSHSIPTVIALFASTSQYIRHVAYELLEDLFEKYETLVFSSLSRGVTKAIHYSIHTDEKYYYKHDHFLSLLEKLCGTGKKNGPKFFKVLKRIMQSYLDDITDLTSTNSSVQKSIFVLCTNISNITFVSQYDLVSLLKTIDLTTDRLKEVIMDEIGDNVSSLSVSEEKLSGIILIQLSLQDLGTYLLHLYGLRDDVLLLDIVEESELKNKQLPAKKPDISKFSAQLENIEQYSSNGKLLTYFRKHVKDT
notes: Scc2, S. cerevisiae; source: S. cerevisiae W303, late G1 arrested cells, whole-cell extract
